Measured values: article PMC4384732 (The Journal of Cell Biology, 2015)

B1: N-terminally 6×His-tagged full-length CCM3 (natural protein)
chain: not shown
B2: GST-CCM2^PTB-LongLinker (residues 51–251) (domain or fragment, human, UniProt Q9BSQ5 51-251, looked up)
chain: ERVEPDRLLSDYIEKEVKYLGQLTSIPGYLNPSSRTEILHFIDNAKRAHQLPGHLTQEHDAVLSLSAYNVKLAWRDGEDIILRVPIHDIAAVSYVRDDAAHLVVLKTAQDPGISPSQSLCAESSRGLSAGSLSESAVGPVEACCLVILAAESKVAAEELCCLLGQVFQVVYTESTIDFLDRAIFDGASTPTHHLSLHSDDS
B3: GST-CCM2^PTB-ShortLinker (residues 51–238) (domain or fragment, human, UniProt Q9BSQ5 51-238, looked up)
chain: ERVEPDRLLSDYIEKEVKYLGQLTSIPGYLNPSSRTEILHFIDNAKRAHQLPGHLTQEHDAVLSLSAYNVKLAWRDGEDIILRVPIHDIAAVSYVRDDAAHLVVLKTAQDPGISPSQSLCAESSRGLSAGSLSESAVGPVEACCLVILAAESKVAAEELCCLLGQVFQVVYTESTIDFLDRAIFDGAS
B4: CCM3 (purified, polyhistidine tag removed by TEV protease) (natural protein)
chain: not shown

What was measured:
[1] = biological target: GST-CCM2^FL (residues 1–438) (human, UniProt Q9BSQ5 1-438); assay: pull-down
Sequence of GST-CCM2^FL (residues 1–438) (Q9BSQ5 1-438): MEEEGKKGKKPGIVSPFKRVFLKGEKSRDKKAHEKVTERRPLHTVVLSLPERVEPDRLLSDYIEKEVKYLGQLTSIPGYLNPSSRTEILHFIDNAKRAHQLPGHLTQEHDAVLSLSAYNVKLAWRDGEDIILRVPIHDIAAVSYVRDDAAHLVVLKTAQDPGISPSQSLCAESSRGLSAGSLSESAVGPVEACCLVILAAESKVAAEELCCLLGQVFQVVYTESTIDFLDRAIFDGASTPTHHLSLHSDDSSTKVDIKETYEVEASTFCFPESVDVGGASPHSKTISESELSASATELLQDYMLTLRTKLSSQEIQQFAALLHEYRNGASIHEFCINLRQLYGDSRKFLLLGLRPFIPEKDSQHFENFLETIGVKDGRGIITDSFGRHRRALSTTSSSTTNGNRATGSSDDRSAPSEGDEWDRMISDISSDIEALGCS

[2] = biological target: B1; assay: pull-down
[3] = biological target: B4; assay: BLI
[4] = biological target: B1; assay: pull-down; remark: listed apart in the source
[5] = biological target: B4; assay: crystal structure
[6] = biological target: the molecule itself; assay: crystal structure

B1
Kd [1]: 8.8 ± 1.6 µM

B2
binding result [2]: binds

B3
binding result [2]: binds

STIDFLDRAIFDGAST [GST-CCM2-LD–like motif (residues 224–239)]
Kd [3]: 9.5 ± 2.5 µM | Kd [4]: 8.6 ± 2.2 µM

Ac-STIDFLDRAIFDGAST-NH2 [CCM2 LD–like motif peptide (224–239)]
binding result [5]: binds

B4
binding result [6]: binds
